Measured values from patent publication US20040087777A1.

How the values were obtained:
Test in all cases: rNET
… analog, Residue 4 = A = target: … analog, Residue 4 = A
… analog, Residue 4 = C = target: … analog, Residue 4 = C
… analog, Residue 4 = D = target: … analog, Residue 4 = D
… analog, Residue 4 = E = target: … analog, Residue 4 = E
… analog, Residue 4 = G = target: … analog, Residue 4 = G
… analog, Residue 4 = I = target: … analog, Residue 4 = I
… analog, Residue 4 = K = target: … analog, Residue 4 = K
… analog, Residue 4 = L = target: … analog, Residue 4 = L
… analog, Residue 4 = M = target: … analog, Residue 4 = M
… analog, Residue 4 = N = target: … analog, Residue 4 = N
… analog, Residue 4 = P = target: … analog, Residue 4 = P
… analog, Residue 4 = Q = target: … analog, Residue 4 = Q
… analog, Residue 4 = R = target: … analog, Residue 4 = R
… analog, Residue 4 = S = target: … analog, Residue 4 = S
… analog, Residue 4 = T = target: … analog, Residue 4 = T
… analog, Residue 4 = V = target: … analog, Residue 4 = V
… analog, Residue 4 = W = target: … analog, Residue 4 = W
… analog, Residue 4 = Y = target: … analog, Residue 4 = Y
… analog, Residue 5 = A = target: … analog, Residue 5 = A
… analog, Residue 5 = C = target: … analog, Residue 5 = C
… analog, Residue 5 = D = target: … analog, Residue 5 = D
… analog, Residue 5 = E = target: … analog, Residue 5 = E
… analog, Residue 5 = F = target: … analog, Residue 5 = F
… analog, Residue 5 = I = target: … analog, Residue 5 = I
… analog, Residue 5 = L = target: … analog, Residue 5 = L
… analog, Residue 5 = M = target: … analog, Residue 5 = M
… analog, Residue 5 = N = target: … analog, Residue 5 = N
… analog, Residue 5 = P = target: … analog, Residue 5 = P
… analog, Residue 5 = Q = target: … analog, Residue 5 = Q
… analog, Residue 5 = S = target: … analog, Residue 5 = S
… analog, Residue 5 = T = target: … analog, Residue 5 = T
… analog, Residue 5 = V = target: … analog, Residue 5 = V
… analog, Residue 5 = W = target: … analog, Residue 5 = W
… analog, Residue 5 = Y = target: … analog, Residue 5 = Y
… analog, Residue 6 = A = target: … analog, Residue 6 = A
… analog, Residue 6 = C = target: … analog, Residue 6 = C
… analog, Residue 6 = D = target: … analog, Residue 6 = D
… analog, Residue 6 = E = target: … analog, Residue 6 = E
… analog, Residue 6 = F = target: … analog, Residue 6 = F
… analog, Residue 6 = G = target: … analog, Residue 6 = G
… analog, Residue 6 = I = target: … analog, Residue 6 = I
… analog, Residue 6 = K = target: … analog, Residue 6 = K
… analog, Residue 6 = L = target: … analog, Residue 6 = L
… analog, Residue 6 = M = target: … analog, Residue 6 = M
… analog, Residue 6 = N = target: … analog, Residue 6 = N
… analog, Residue 6 = P = target: … analog, Residue 6 = P
… analog, Residue 6 = Q = target: … analog, Residue 6 = Q
… analog, Residue 6 = R = target: … analog, Residue 6 = R
… analog, Residue 6 = V = target: … analog, Residue 6 = V
… analog, Residue 6 = W = target: … analog, Residue 6 = W
… analog, Residue 6 = Y = target: … analog, Residue 6 = Y
… analog, Residue 7 = A = target: … analog, Residue 7 = A
… analog, Residue 7 = C = target: … analog, Residue 7 = C
… analog, Residue 7 = F = target: … analog, Residue 7 = F
… analog, Residue 7 = G = target: … analog, Residue 7 = G
… analog, Residue 7 = I = target: … analog, Residue 7 = I
… analog, Residue 7 = K = target: … analog, Residue 7 = K
… analog, Residue 7 = L = target: … analog, Residue 7 = L
… analog, Residue 7 = M = target: … analog, Residue 7 = M
… analog, Residue 7 = P = target: … analog, Residue 7 = P
… analog, Residue 7 = Q = target: … analog, Residue 7 = Q
… analog, Residue 7 = R = target: … analog, Residue 7 = R
… analog, Residue 7 = S = target: … analog, Residue 7 = S
… analog, Residue 7 = T = target: … analog, Residue 7 = T
… analog, Residue 7 = V = target: … analog, Residue 7 = V
… analog, Residue 7 = W = target: … analog, Residue 7 = W
… analog, Residue 7 = Y = target: … analog, Residue 7 = Y

- OD (… analog, Residue 4 = A): 0.016 OD
- OD (… analog, Residue 4 = C): 0.02 OD
- OD (… analog, Residue 4 = D): 0.017 OD
- OD (… analog, Residue 4 = E): 0.016 OD
- OD (… analog, Residue 4 = G): 0.016 OD
- OD (… analog, Residue 4 = I): 0.119 OD
- OD (… analog, Residue 4 = K): 0.015 OD
- OD (… analog, Residue 4 = L): 0.559 OD
- OD (… analog, Residue 4 = M): 0.549 OD
- OD (… analog, Residue 4 = N): 0.085 OD
- OD (… analog, Residue 4 = P): 0.03 OD
- OD (… analog, Residue 4 = Q): 0.065 OD
- OD (… analog, Residue 4 = R): 0.016 OD
- OD (… analog, Residue 4 = S): 0.026 OD
- OD (… analog, Residue 4 = T): 0.016 OD
- OD (… analog, Residue 4 = V): 0.213 OD
- OD (… analog, Residue 4 = W): 0.291 OD
- OD (… analog, Residue 4 = Y): 0.529 OD
- OD (… analog, Residue 5 = A): 0.275 OD
- OD (… analog, Residue 5 = C): 0.359 OD
- OD (… analog, Residue 5 = D): 0.08 OD
- OD (… analog, Residue 5 = E): 0.115 OD
- OD (… analog, Residue 5 = F): 0.439 OD
- OD (… analog, Residue 5 = I): 0.51 OD
- OD (… analog, Residue 5 = L): 0.517 OD
- OD (… analog, Residue 5 = M): 0.418 OD
- OD (… analog, Residue 5 = N): 0.476 OD
- OD (… analog, Residue 5 = P): 0.093 OD
- OD (… analog, Residue 5 = Q): 0.388 OD
- OD (… analog, Residue 5 = S): 0.487 OD
- OD (… analog, Residue 5 = T): 0.53 OD
- OD (… analog, Residue 5 = V): 0.493 OD
- OD (… analog, Residue 5 = W): 0.393 OD
- OD (… analog, Residue 5 = Y): 0.278 OD
- OD (… analog, Residue 6 = A): 0.587 OD
- OD (… analog, Residue 6 = C): 0.585 OD
- OD (… analog, Residue 6 = D): 0.584 OD
- OD (… analog, Residue 6 = E): 0.579 OD
- OD (… analog, Residue 6 = F): 0.586 OD
- OD (… analog, Residue 6 = G): 0.592 OD
- OD (… analog, Residue 6 = I): 0.602 OD
- OD (… analog, Residue 6 = K): 0.585 OD
- OD (… analog, Residue 6 = L): 0.584 OD
- OD (… analog, Residue 6 = M): 0.583 OD
- OD (… analog, Residue 6 = N): 0.58 OD
- OD (… analog, Residue 6 = P): 0.587 OD
- OD (… analog, Residue 6 = Q): 0.57 OD
- OD (… analog, Residue 6 = R): 0.576 OD
- OD (… analog, Residue 6 = V): 0.588 OD
- OD (… analog, Residue 6 = W): 0.576 OD
- OD (… analog, Residue 6 = Y): 0.595 OD
- OD (… analog, Residue 7 = A): 0.58 OD
- OD (… analog, Residue 7 = C): 0.559 OD
- OD (… analog, Residue 7 = F): 0.546 OD
- OD (… analog, Residue 7 = G): 0.562 OD
- OD (… analog, Residue 7 = I): 0.552 OD
- OD (… analog, Residue 7 = K): 0.565 OD
- OD (… analog, Residue 7 = L): 0.566 OD
- OD (… analog, Residue 7 = M): 0.562 OD
- OD (… analog, Residue 7 = P): 0.582 OD
- OD (… analog, Residue 7 = Q): 0.563 OD
- OD (… analog, Residue 7 = R): 0.551 OD
- OD (… analog, Residue 7 = S): 0.563 OD
- OD (… analog, Residue 7 = T): 0.56 OD
- OD (… analog, Residue 7 = V): 0.563 OD
- OD (… analog, Residue 7 = W): 0.547 OD
- OD (… analog, Residue 7 = Y): 0.56 OD
B1: murine monoclonal antibody 3D6 (antibody, mouse IgG2b, V domains shown)
VL: not shown
VH: EVKLVESGGGLVKPGASLKLSCAASGFTFSNYGMSWVRQNSDKRLEWVASIRSGGGRTYYSDNVKGRFTISRENAKNTLYLQMSSLKSEDTALYYCVRYDHYSGSSDYWGQGTTVTVSS
